In patent publication US20240261333A1 (published 2024):

T1: RCN1 (human, UniProt Q15293 30-331)
T1 construct: also called NP_002892.1
T1 sequence (looked up): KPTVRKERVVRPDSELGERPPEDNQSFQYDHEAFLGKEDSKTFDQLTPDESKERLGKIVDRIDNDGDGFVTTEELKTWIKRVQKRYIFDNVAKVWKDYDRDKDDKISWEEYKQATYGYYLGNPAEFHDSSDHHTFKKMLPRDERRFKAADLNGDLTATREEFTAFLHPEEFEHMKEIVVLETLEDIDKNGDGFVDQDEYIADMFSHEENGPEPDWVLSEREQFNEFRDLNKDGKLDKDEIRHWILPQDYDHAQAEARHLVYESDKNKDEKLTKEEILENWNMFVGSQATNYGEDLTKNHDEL

T2: ATAD3A (human, UniProt Q9NVI7 2-586)
T2 construct: also called NP_001164006.1 (+2)
T2 sequence (looked up): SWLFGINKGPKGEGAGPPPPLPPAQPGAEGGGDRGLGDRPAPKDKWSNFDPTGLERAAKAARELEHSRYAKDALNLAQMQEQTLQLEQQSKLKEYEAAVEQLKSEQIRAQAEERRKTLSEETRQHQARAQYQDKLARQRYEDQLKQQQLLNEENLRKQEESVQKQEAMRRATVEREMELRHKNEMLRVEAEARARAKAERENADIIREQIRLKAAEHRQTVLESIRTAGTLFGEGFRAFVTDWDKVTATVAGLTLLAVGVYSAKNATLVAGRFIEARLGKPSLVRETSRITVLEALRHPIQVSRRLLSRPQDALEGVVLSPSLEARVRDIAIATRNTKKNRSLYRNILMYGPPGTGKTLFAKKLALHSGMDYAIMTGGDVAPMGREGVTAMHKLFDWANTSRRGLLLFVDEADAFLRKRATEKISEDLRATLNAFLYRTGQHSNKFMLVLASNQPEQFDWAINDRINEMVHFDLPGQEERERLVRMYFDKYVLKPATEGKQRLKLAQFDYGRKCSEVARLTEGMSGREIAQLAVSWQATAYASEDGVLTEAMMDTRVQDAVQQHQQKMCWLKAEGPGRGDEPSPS

T3: ERP44 (human, UniProt Q9BS26 30-406)
T3 construct: also called NP_055866.1
T3 sequence (looked up): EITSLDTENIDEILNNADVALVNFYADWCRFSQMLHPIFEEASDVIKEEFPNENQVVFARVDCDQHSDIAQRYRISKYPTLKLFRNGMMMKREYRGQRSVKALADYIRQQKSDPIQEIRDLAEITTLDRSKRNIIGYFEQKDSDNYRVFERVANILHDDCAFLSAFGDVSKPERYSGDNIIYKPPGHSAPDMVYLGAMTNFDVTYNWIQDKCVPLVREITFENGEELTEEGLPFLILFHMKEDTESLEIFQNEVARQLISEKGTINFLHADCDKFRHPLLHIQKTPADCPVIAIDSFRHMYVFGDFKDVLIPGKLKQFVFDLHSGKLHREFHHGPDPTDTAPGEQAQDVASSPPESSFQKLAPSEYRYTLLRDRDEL

T4: SLC25A22 (human, UniProt Q9H936 1-323)
T4 construct: also called NP_001177990.1
T4 sequence (looked up): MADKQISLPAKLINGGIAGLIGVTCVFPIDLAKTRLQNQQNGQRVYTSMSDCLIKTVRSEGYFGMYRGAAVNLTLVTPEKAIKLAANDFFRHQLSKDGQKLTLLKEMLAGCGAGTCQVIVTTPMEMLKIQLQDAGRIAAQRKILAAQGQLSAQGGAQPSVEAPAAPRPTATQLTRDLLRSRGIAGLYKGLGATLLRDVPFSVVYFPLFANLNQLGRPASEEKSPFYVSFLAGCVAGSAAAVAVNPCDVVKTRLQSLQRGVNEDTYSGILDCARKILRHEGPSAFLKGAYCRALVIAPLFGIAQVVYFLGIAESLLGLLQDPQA

B1: N-terminal FLAG tagged B3GNT2 (enzyme, human, UniProt Q9NY97 1-397, looked up)
chain: MSVGRRRIKLLGILMMANVFIYFIMEVSKSSSQEKNGKGEVIIPKEKFWKISTPPEAYWNREQEKLNRQYNPILSMLTNQTGEAGRLSNISHLNYCEPDLRVTSVVTGFNNLPDRFKDFLLYLRCRNYSLLIDQPDKCAKKPFLLLAIKSLTPHFARRQAIRESWGQESNAGNQTVVRVFLLGQTPPEDNHPDLSDMLKFESEKHQDILMWNYRDTFFNLSLKEVLFLRWVSTSCPDTEFVFKGDDDVFVNTHHILNYLNSLSKTKAKDLFIGDVIHNAGPHRDKKLKYYIPEVVYSGLYPPYAGGGGFLYSGHLALRLYHITDQVHLYPIDDVYTGMCLQKLGLVPEKHKGFRTFDIEEKNKNNICSYVDLMLVHSRKPQEMIDIWSQLQSAHLKC
notes: Bait of the co-IP; pulled down from cell lysate with mouse anti-FLAG antibody; also called N-FLAG B3GNT2; N-term FLAG; not shown: N-terminal FLAG tag
B2: N-terminal FLAG tagged B3GNT2 (enzyme, human, UniProt Q9NY97 1-397, looked up)
chain: MSVGRRRIKLLGILMMANVFIYFIMEVSKSSSQEKNGKGEVIIPKEKFWKISTPPEAYWNREQEKLNRQYNPILSMLTNQTGEAGRLSNISHLNYCEPDLRVTSVVTGFNNLPDRFKDFLLYLRCRNYSLLIDQPDKCAKKPFLLLAIKSLTPHFARRQAIRESWGQESNAGNQTVVRVFLLGQTPPEDNHPDLSDMLKFESEKHQDILMWNYRDTFFNLSLKEVLFLRWVSTSCPDTEFVFKGDDDVFVNTHHILNYLNSLSKTKAKDLFIGDVIHNAGPHRDKKLKYYIPEVVYSGLYPPYAGGGGFLYSGHLALRLYHITDQVHLYPIDDVYTGMCLQKLGLVPEKHKGFRTFDIEEKNKNNICSYVDLMLVHSRKPQEMIDIWSQLQSAHLKC
notes: FLAG-tagged ORF overexpressed in cells; bait of the anti-FLAG co-IP; also called N-FLAG B3GNT2; N-term FLAG; not shown: FLAG tag at the N-terminus

Legend:
RCN1 = biological target: T1, RCN1; assay: anti-FLAG co-IP from lysate of N-FLAG B3GNT2 cells, mass spectrometry
ATAD3A = biological target: T2, ATAD3A; assay: as above
ERP44 = biological target: T3, ERP44; assay: as above
SLC25A22 = biological target: T4, SLC25A22; assay: as above
HNRNPA1 = biological target: T5, HNRNPA1 (UniProt P09651 2-372); assay: co-IP with anti-FLAG, mass spectrometry; N-FLAG B3GNT2
T5 construct: Endogenous protein found in the co-IP by mass spectrometry; also called NP_112420.1
Procedure: Cells were plated in 10-cm cell culture dishes and grown to 60-80% confluency. For each condition, two biological replicates were harvested for co-IP. Cells were washed with PBS and 4 mL of lysis buffer (20 mM HEPES, 1% Triton X-100, 150 mM NaCl, 1 mM EDTA, and 10% glycerol) containing protease inhibitor cocktail was added. Cells were scraped and lysate was incubated at 4° C. under rotary agitation for 1 h. Lysate was centrifuged at 14,000×g for 10 min at 4° C. Supernatant was transferred to a new tube and an aliquot was taken as the input. […] For Western blots, 10 μg/mL Chicken Anti-FLAG (Aves labs ET-DY100) and IgY control (R&D Systems AB-101-C) antibodies were biotinylated (Thermo Fisher Scientific 90407) and added to the respective conditions. Lysates with antibodies were incubated at 4° C. under rotary agitation overnight. For each mL of lysate, 50 μL of Pierce Protein A/G Magnetic Beads (Mass spectrometry; Thermo Fisher Scientific 88803) or Pierce Streptavidin Magnetic Beads (Western blot; Thermo Fisher Scientific 88817) was washed twice with lysis buffer. Lysates with antibodies were added to the beads and incubated at 4° C. under rotary agitation for 4 h. Beads were washed with lysis buffer 3 times and resuspended in lysis buffer for storage.
Magnetic beads were resuspended in 100 mM Tris pH 7.8, reduced, alkylated and digested with trypsin at 37° ° C. overnight. This solution was subjected to solid phase extraction to concentrate the peptides and remove unwanted reagents followed by injection onto a Shimadzu HPLC with fraction collector. Eight fractions were collected and after concentration were injected on a Waters NanoAcquity HPLC equipped with a self-packed Aeris 3 μm C18 analytical column 0.075 mm by 20 cm, (Phenomenex). Peptides were eluted using standard reverse-phase gradients. The effluent from the column was analyzed using a Thermo Orbitrap Elite mass spectrometer (nanospray configuration) operated in a data dependent manner for 54 minutes. The resulting fragmentation spectra were correlated against the known database using Proteome Discover 1.4 (Thermo Fisher Scientific).

T5 sequence (P09651 2-372 limits assumed): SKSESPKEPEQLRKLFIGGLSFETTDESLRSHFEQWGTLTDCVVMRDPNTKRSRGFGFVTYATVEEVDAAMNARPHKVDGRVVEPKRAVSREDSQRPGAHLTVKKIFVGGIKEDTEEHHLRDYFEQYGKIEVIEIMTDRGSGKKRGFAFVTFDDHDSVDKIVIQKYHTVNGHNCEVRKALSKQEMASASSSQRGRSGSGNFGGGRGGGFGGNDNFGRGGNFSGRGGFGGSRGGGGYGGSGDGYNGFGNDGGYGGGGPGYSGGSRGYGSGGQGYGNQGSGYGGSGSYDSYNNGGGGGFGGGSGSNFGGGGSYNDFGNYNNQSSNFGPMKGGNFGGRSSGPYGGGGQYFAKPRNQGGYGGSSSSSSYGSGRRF

| Binder | co-IP mass spectrometry count (RCN1) | co-IP mass spectrometry count (ATAD3A) | co-IP mass spectrometry count (ERP44) | co-IP mass spectrometry count (SLC25A22) | co-IP mass spectrometry count (HNRNPA1) |
| --- | --- | --- | --- | --- | --- |
| B1 | 0 | 0 | 0 | 0 |  |
| B2 |  |  |  |  | 7 |
